Test results from paper PMC10442045.

Assays:
Conditions in all cases: LightShift EMSA: 1x binding buffer, 2.5% glycerol, 5 mM MgCl2, 0.05% NP-40, 5 mM EDTA, 20 ng probe, 0-0.5 ng protein (so in the source), 20 uL, 20 min at 26 C; 6% …
[1] = molecular target: T1, OmpR (Pseudomonas aeruginosa PA14) (UniProt A0A0H2ZIR0); assay: EMSA
T1 sequence: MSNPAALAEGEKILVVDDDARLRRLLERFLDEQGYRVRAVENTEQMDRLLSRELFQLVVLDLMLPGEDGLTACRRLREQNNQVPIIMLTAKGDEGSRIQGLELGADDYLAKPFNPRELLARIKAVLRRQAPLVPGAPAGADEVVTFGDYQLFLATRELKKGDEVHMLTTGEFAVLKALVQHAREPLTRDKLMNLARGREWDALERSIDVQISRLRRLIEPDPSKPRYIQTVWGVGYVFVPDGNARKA

[2] = molecular target: T2, OxyR (Pseudomonas aeruginosa PA14) (UniProt A0A0H2ZI92); assay: EMSA
T2 sequence: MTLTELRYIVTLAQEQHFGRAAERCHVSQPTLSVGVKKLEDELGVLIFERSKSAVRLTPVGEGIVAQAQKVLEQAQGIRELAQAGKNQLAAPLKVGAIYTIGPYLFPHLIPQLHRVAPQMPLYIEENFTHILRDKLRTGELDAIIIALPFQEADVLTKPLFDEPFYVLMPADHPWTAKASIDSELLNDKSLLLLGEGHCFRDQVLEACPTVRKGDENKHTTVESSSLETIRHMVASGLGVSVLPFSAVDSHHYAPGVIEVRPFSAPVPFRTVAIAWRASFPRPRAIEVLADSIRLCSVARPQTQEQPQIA

[3] = molecular target: T1, OmpR (Pseudomonas aeruginosa PA14); assay: competition
[4] = molecular target: T2, OxyR (Pseudomonas aeruginosa PA14); assay: competition

With “GGGAGTCCAACGAAAATTTTATTTTGCAAATCCATAGACCTGTTCTAGCGTCTTTTGTAGTTCGTCGCCAGTGACGGACCAGAGGGATCGCCAAGGACAGGTTCTGCGCCGTTTTCCCTGTCATGCCTGTGATCCAGCAAGGGACTGCGATGATCAGGGCATCCCCCGATGCATTGCGCCCCCACCATTGCATCGGAGTCAGCCGCC (double strand) [Bio-PH3-T6SS left]” the binding [1] was “binds” and the binding [2] was “binds”.
“CGATGCGCCCGTCGGCGTAGCGTTTATGTAGTTCAGCGCGCGATACACCTGTCCCTTGAAGGCGGAGGGATACGGGCTTTCCTCGTAGAAGCCGGTGGCTTCGTTGAGCACCTCCCAATCGCTGTCCTGGGTCAGCACGGCGATTCCGGGCGGGGTCGCATGATACAGGCCGTTCGTGGGGCGCCAGTATTCGATGGTTCGGGGCAT (double strand) [Unrelated DNA (control)]” was tested, and the binding [3] was “no binding” and the binding [4] was “no binding”.
